Measured values published in patent publication US20230242658A1 (published 2023).
Values belong to the binder of their own block, whether it stands above or below them.

What was measured:
[1] = target: T1, cynomolgus monkey 4-1BB on CHO-K1 cells (cynomolgus monkey); assay: FACS
T1 chain: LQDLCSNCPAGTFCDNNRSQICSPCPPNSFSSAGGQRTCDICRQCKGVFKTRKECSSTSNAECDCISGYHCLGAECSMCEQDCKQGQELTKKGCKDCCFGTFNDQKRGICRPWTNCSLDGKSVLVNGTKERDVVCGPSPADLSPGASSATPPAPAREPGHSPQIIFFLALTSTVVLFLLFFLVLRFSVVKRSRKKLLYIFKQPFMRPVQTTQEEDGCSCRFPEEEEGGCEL

[2] = target: T2, human 4-1BB on CHO-K1 cells (human, UniProt Q07011 24-255); assay: FACS
[3] = target: human PD-L1 on CHO-K1 cells (human, UniProt Q9NZQ7 19-290); assay: FACS
[4] = target: T1, cynomolgus monkey 4-1BB on CHO-K1 cells; assay: FACS
[5] = target: T1, cynomolgus monkey 4-1BB on CHO-K1 cells; assay: FACS; FIG. 12H
[6] = target: T2, human 4-1BB on CHO-K1 cells; assay: FACS; FIG. 11I
[7] = target: T2, human 4-1BB on CHO-K1 cells; assay: FACS blocking of 4-1BBL; FIG. 14G
[8] = target: T2, human 4-1BB on CHO-K1 cells; assay: FACS; remark: listed apart in the source
Target sequence in this assay (Q07011 24-255): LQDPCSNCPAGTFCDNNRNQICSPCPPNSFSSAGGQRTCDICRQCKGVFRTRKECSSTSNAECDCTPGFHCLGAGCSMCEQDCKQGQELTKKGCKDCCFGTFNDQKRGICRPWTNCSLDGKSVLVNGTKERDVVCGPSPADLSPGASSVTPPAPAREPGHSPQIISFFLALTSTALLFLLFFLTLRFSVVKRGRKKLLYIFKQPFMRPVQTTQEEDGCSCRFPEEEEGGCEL

[9] = target: T1, cynomolgus monkey 4-1BB on CHO-K1 cells; assay: FACS; FIG. 12F
[10] = target: T2, human 4-1BB on CHO-K1 cells; assay: FACS blocking of 4-1BBL; FIG. 14F
[11] = target: T2, human 4-1BB on CHO-K1 cells; assay: FACS; remark: listed apart in the source
[12] = target: T1, cynomolgus monkey 4-1BB on CHO-K1 cells; assay: FACS; FIG. 12C
[13] = target: T2, human 4-1BB on CHO-K1 cells; assay: FACS blocking of 4-1BBL
[14] = target: T1, cynomolgus monkey 4-1BB on CHO-K1 cells; assay: FACS; FIG. 12K
[15] = target: T2, human 4-1BB on CHO-K1 cells; assay: FACS; FIG. 11L
Target sequence in this assay (Q07011 24-255): as above

[16] = target: T2, human 4-1BB on CHO-K1 cells; assay: FACS blocking of 4-1BBL; remark: listed apart in the source
Target sequence in this assay (Q07011 24-255): as above

human PD-L1 on CHO-K1 cells, sequence (Q9NZQ7 19-290): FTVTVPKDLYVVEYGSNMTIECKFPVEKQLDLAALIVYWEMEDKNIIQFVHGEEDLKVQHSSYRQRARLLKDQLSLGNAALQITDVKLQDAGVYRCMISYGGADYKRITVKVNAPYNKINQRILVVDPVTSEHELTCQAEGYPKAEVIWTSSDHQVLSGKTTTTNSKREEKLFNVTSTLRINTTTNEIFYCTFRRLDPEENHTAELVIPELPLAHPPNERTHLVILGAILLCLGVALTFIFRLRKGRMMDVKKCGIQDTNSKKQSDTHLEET

B1: PR003549 (bispecific antibody)
light: DIQMTQSPSTLSASVGDRVTVTCRASQSIYIWLAWYQQKPGKAPNLLIYKASSLETGVPSRFSGSGSGTEFTLTISSLQPDDFATYYCQQYYGSSRTFGQGTKVEIKRTVAAPSVFIFPPSDEQLKSGTASVVCLLNNFYPREAKVQWKVDNALQSGNSQESVTEQDSKDSTYSLSSTLTLSKADYEKHKVYACEVTHQGLSSPVTKSFNRGEC
heavy: EVQLVESGGGLVQPGGSLRLSCAASGFTFSSYWMSWVRQAPGKGLEWVANIKQEGSEKYYVDSVKGRFTISRDNAKNSLYLQMNSLRAEDTAVYYCARDRAVAGAFDIWGQGTMVTVSSASTKGPSVFPLAPSSKSTSGGTAALGCLVKDYFPEPVTVSWNSGALTSGVHTFPAVLQSSGLYSLSSVVTVPSSSLGTQTYICNVNHKPSNTKVDKKVEPKSCDKTHTCPPCPAPEAAGGPSVFLFPPKPKDTLMISRTPEVTCVVVDVSHEDPEVKFNWYVDGVEVHNAKTKPREEQYNSTYRVVSVLTVLHQDWLNGKEYKCKVSNKALGAPIEKTISKAKGQPREPQVYTLPPSREEMTKNQVSLTCLVKGFYPSDIAVEWESNGQPENNYKTTPPVLDSDGSFFLYSKLTVDKSRWQQGNVFSCSVMHEALHNHYTQKSLSLSPGEPKSSDKTHTPPPPPRTEVQLLESGGGLVQLGGSLRLSCAASGFTFSRYAMTWVRQAPEKGLEWVSSISGSGDDTYYGDSVKGRFTISRDNSQNTVYLQMNSLRAEDTAVYFCAKEKAGTTGDYYYNVDVWGQGTTVTVSS
EC50 [1]: 1.86 nM | EC50 [2]: 1.9 nM | EC50 [3]: 1.56 nM

B3: PR003550 (bispecific antibody)
light: DIQMTQSPSTLSASVGDRVTVTCRASQSIYIWLAWYQQKPGKAPNLLIYKASSLETGVPSRFSGSGSGTEFTLTISSLQPDDFATYYCQQYYGSSRTFGQGTKVEIKRTVAAPSVFIFPPSDEQLKSGTASVVCLLNNFYPREAKVQWKVDNALQSGNSQESVTEQDSKDSTYSLSSTLTLSKADYEKHKVYACEVTHQGLSSPVTKSFNRGEC
heavy: EVQLVESGGGLVQPGGSLRLSCAASGFTFSSYWMSWVRQAPGKGLEWVANIKQEGSEKYYVDSVKGRFTISRDNAKNSLYLQMNSLRAEDTAVYYCARDRAVAGAFDIWGQGTMVTVSSASTKGPSVFPLAPSSKSTSGGTAALGCLVKDYFPEPVTVSWNSGALTSGVHTFPAVLQSSGLYSLSSVVTVPSSSLGTQTYICNVNHKPSNTKVDKKVEPKSCDKTHTCPPCPAPEAAGGPSVFLFPPKPKDTLMISRTPEVTCVVVDVSHEDPEVKFNWYVDGVEVHNAKTKPREEQYNSTYRVVSVLTVLHQDWLNGKEYKCKVSNKALGAPIEKTISKAKGQPREPQVYTLPPSREEMTKNQVSLTCLVKGFYPSDIAVEWESNGQPENNYKTTPPVLDSDGSFFLYSKLTVDKSRWQQGNVFSCSVMHEALHNHYTQKSLSLSPGEPKSSDKTHTPPPPPRTEVQLVESGGGVVQPGGSLRLSCAASGFTFSNYAMTWVRQAPEKGLEWVSSISGSGVSTYYADSVKGRFTISRDNSKNTLYLQMTRLTAEDTAVYFCAKEGSSETDDHYYNVDVWGQGTTVTVSS
EC50 [1]: 1.32 nM | EC50 [3]: 1.11 nM

B5: PR001840 (antibody, V domains shown)
VH: EVQLVESGGGLVQPGGSLRLSCAASGFTFSSYWMHWVRQAPGKGLVWVSRINSDGSSTSYADSVQGRFTISRDNAKNTLYLQMNSLRAEDTAVYYCVRKGSSSYYHYSIEDDWGQGTLVTVSS
EC50 [8]: 0.37 nM | EC50 [9]: 1.25 nM | IC50 [10]: 2.58 nM

B6: PR001774 (antibody, V domains shown)
VH: EVQLVESGGGLVQPGGSLRLSCAASGFTFSSFAMTWVRQAPEKGLEWVSTISGSGDTTYYADSVKGRFTISRDSSKNTLYLQMNSLRAEDSAVYFCAKEATAMASDYYYGVDVWGQGTTVTVSS
EC50 [11]: 1.27 nM | EC50 [12]: 6.73 nM | IC50 [13]: ~2.12 nM

B12: PR001837 (antibody, V domains shown)
VH: EVQLLESGGGLVQPGGSLRLSCEASGFTFSSYAMSWVRQAPEKGLEWVSSISGSGGSTFYADSVKGRFTISRDNSKNTLYLQMNSLRAEDTAVYYCAKEGTTETDDYHYNMDVWGQGTTVTVSS
EC50 [8]: 0.386 nM | EC50 [9]: 1.63 nM | IC50 [10]: 1.96 nM

B13: PR001768 (antibody, V domains shown)
VH: EVQLLESGGGLVQPGGSLRLSCAASGFTFSNYAMTWVRQAPGKGLEWVSSISGSGDSTYYADSVKGRFTISRDNSKNTLYLQMNSLRAEDTAVYYCAKEGTGTTSDYYYNVDVWGQGTTVTVSS
EC50 [11]: 0.846 nM | EC50 [12]: 6.97 nM

B14: PR001771 (antibody, V domains shown)
VH: EVQLLESGGGLVQPGGSLRLSCAASGFTFSNYAMTWVRQPPGKGLEWVSSISGSGGSTYYADSVKGRFTISRDNSKNTLYLQMNSLRAEDTAVYYCAKEGTGTTSDYYYNVDVWGQGTTVTVSS
EC50 [11]: 0.532 nM | EC50 [12]: 3.77 nM | IC50 [13]: 21.6 nM

Results, then the binder that gave them:

EC50 [4]: 0.621 nM | EC50 [3]: 1.2 nM
B2: PR004268 (bispecific antibody)
light: DIQMTQSPSTLSASVGDRVTVTCRASQSIYIWLAWYQQKPGKAPNLLIYKASSLETGVPSRFSGSGSGTEFTLTISSLQPDDFATYYCQQYYGSSRTFGQGTKVEIKRTVAAPSVFIFPPSDEQLKSGTASVVCLLNNFYPREAKVQWKVDNALQSGNSQESVTEQDSKDSTYSLSSTLTLSKADYEKHKVYACEVTHQGLSSPVTKSFNRGEC
heavy: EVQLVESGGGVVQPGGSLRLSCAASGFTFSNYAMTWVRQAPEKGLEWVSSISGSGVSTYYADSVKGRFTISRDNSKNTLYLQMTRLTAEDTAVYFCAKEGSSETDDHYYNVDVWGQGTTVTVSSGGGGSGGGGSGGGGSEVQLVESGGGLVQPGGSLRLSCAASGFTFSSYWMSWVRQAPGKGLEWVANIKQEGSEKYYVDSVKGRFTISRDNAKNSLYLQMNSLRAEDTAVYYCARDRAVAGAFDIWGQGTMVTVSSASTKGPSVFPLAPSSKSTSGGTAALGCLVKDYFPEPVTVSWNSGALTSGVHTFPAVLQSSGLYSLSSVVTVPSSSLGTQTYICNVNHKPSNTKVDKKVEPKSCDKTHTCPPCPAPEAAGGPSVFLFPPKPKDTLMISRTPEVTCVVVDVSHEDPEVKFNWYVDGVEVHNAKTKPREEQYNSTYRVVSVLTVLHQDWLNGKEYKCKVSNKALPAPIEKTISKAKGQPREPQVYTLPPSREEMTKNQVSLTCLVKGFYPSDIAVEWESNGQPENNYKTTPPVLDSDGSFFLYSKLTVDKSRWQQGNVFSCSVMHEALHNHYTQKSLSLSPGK

EC50 [5]: 4.61 nM | EC50 [6]: 4.37 nM | IC50 [7]: 7.54 nM
B4: PR007286 (antibody, V domains shown)
VH: EVQLVESGGGLVKPGGSLRLSCAASGFTFSDYYMSWIRQAPGKGLEWVSYISSSGSTIYYADSVKGRFTISRDNAKNSLYLQMNSLRAEDTAVYYCARVKPVAGTWDWFDPWGQGTPVTVSS

EC50 [14]: 11.1 nM | EC50 [15]: 18.9 nM | IC50 [16]: 16.1 nM
B7: PR007295 (antibody, V domains shown)
VH: EVQLVESGGGLVKPGGSLRLSCAASGFTFSDYYMSWIRQAPGKGLEWVSYISNNGSTIYYADSVKGRFTISRDNAKNSLYLQMNSLRAEDTAVYYCARVRPGGSGNYWDWFDPWGQGTMVTVSS

EC50 [14]: 8.84 nM | EC50 [15]: 11.7 nM | IC50 [16]: 11.3 nM
B8: PR007297 (antibody, V domains shown)
VH: EVQLVESGGGLVKPGGSLRLSCAASGFTFSDYYMSWIRQAPGKGLEWVSYISRSGSTIYYADSVKGRFTISRDNAKNSLYLQMNSLRAEDTAVYYCARVRPGGSGNYWDWFDPWGQGTLVTVSS

EC50 [5]: 0.903 nM | EC50 [6]: 1.21 nM | IC50 [7]: 1.63 nM
B9: PR007288 (antibody, V domains shown)
VH: EVQLVESGGGLVKPGGSLRLSCAASGFTFSDYYMSWFRQAPGKGLEWVSYISGSGSIIDYADSVKGRFTISRDNAKNSLYLQMNSLRAEDTAVYYCSREREAVAGTLDFDYWGQGTLVTVSS

EC50 [14]: 3.28 nM | EC50 [15]: 3.81 nM | IC50 [16]: 4.19 nM
B10: PR007296 (antibody, V domains shown)
VH: EVQLVESGGGLVKPGGSLRLSCVASGFTFSDYYMSWFRQAPGKGLEWVSYISGSGTTIDYADSVKGRFTISRDNAKNSLYLQMNSLRAEDTAVYYCAREREAVAGTLDFDNWGQGTPVTVSS

EC50 [5]: 1.17 nM | EC50 [6]: 1.55 nM | IC50 [7]: 2.55 nM
B11: PR007287 (antibody, V domains shown)
VH: EVQLEESGGGLVKPGGSLRLSCAASGFTFSDYYMSWFRQAPGKGLEWVSYISSSGSITDYADAVKGRFNISRDNAKNSLYLQMNSLRAEDTAVYYCAREREAVAGTLDFDNWGQGTLVTVSS

EC50 [4]: 1.55 nM | EC50 [3]: 0.963 nM
B15: PR004270 (bispecific antibody)
chain 1: EVQLVESGGGLVQPGGSLRLSCAASGFTFSSYWMSWVRQAPGKGLEWVANIKQEGSEKYYVDSVKGRFTISRDNAKNSLYLQMNSLRAEDTAVYYCARDRAVAGAFDIWGQGTMVTVSSASTKGPSVFPLAPSSKSTSGGTAALGCLVKDYFPEPVTVSWNSGALTSGVHTFPAVLQSSGLYSLSSVVTVPSSSLGTQTYICNVNHKPSNTKVDKKVEPKSC
chain 2: not shown
